Data on 17 molecules can be found in patent publication US20230272056A1 (Merck Sharp & Dohme, published 2023).

B1: VH S31R (25BIT) (Fab, V domains shown)
VH: EVQLVQSGAEVKKPGASVKVSCKASGYTFTRYWMHWVRQAPGQGLEWMGRIDPQSGGIKYAQKFQGRATLTVDTSTSTAYMELSRLRSDDTAVYYCARWDYGGYFDVWGQGTLVTVSS
VL: DIQMTQSPSSLSASVGDRVTITCRASQDITNYLNWYQQKPGKAVKLLIYYTSRLHSGVPSRFSGSGSGTDYTLTISSLQPEDFATYFCQQGDTLPWTFGQGTKLEIKR
notes: Light chain: parental 20E6 LC, implied
B2: VL R53I (34BIT) (Fab, V domains shown)
VH: EVQLVQSGAEVKKPGASVKVSCKASGYTFTSYWMHWVRQAPGQGLEWMGRIDPQSGGIKYAQKFQGRATLTVDTSTSTAYMELSRLRSDDTAVYYCARWDYGGYFDVWGQGTLVTVSS
VL: DIQMTQSPSSLSASVGDRVTITCRASQDITNYLNWYQQKPGKAVKLLIYYTSILHSGVPSRFSGSGSGTDYTLTISSLQPEDFATYFCQQGDTLPWTFGQGTKLEIKR
notes: Heavy chain: parental 20E6 Fab HC, implied; also called VL R531 (34BIT)
B3: VL R53E (31BIT) (Fab, V domains shown)
VH: EVQLVQSGAEVKKPGASVKVSCKASGYTFTSYWMHWVRQAPGQGLEWMGRIDPQSGGIKYAQKFQGRATLTVDTSTSTAYMELSRLRSDDTAVYYCARWDYGGYFDVWGQGTLVTVSS
VL: DIQMTQSPSSLSASVGDRVTITCRASQDITNYLNWYQQKPGKAVKLLIYYTSELHSGVPSRFSGSGSGTDYTLTISSLQPEDFATYFCQQGDTLPWTFGQGTKLEIKR
notes: Heavy chain: parental 20E6 Fab HC, implied
B4: VL T30E (36BIT) (Fab, V domains shown)
VH: EVQLVQSGAEVKKPGASVKVSCKASGYTFTSYWMHWVRQAPGQGLEWMGRIDPQSGGIKYAQKFQGRATLTVDTSTSTAYMELSRLRSDDTAVYYCARWDYGGYFDVWGQGTLVTVSS
VL: DIQMTQSPSSLSASVGDRVTITCRASQDIENYLNWYQQKPGKAVKLLIYYTSRLHSGVPSRFSGSGSGTDYTLTISSLQPEDFATYFCQQGDTLPWTFGQGTKLEIKR
notes: as for B3
B5: VH G102S (29BIT) (Fab, V domains shown)
VH: EVQLVQSGAEVKKPGASVKVSCKASGYTFTSYWMHWVRQAPGQGLEWMGRIDPQSGGIKYAQKFQGRATLTVDTSTSTAYMELSRLRSDDTAVYYCARWDYSGYFDVWGQGTLVTVSS
VL: DIQMTQSPSSLSASVGDRVTITCRASQDITNYLNWYQQKPGKAVKLLIYYTSRLHSGVPSRFSGSGSGTDYTLTISSLQPEDFATYFCQQGDTLPWTFGQGTKLEIKR
notes: as for B1
B6: VH S55E (26BIT) (Fab, V domains shown)
VH: EVQLVQSGAEVKKPGASVKVSCKASGYTFTSYWMHWVRQAPGQGLEWMGRIDPQEGGIKYAQKFQGRATLTVDTSTSTAYMELSRLRSDDTAVYYCARWDYGGYFDVWGQGTLVTVSS
VL: DIQMTQSPSSLSASVGDRVTITCRASQDITNYLNWYQQKPGKAVKLLIYYTSRLHSGVPSRFSGSGSGTDYTLTISSLQPEDFATYFCQQGDTLPWTFGQGTKLEIKR
notes: as for B1
B7: VL L94D (32BIT) (Fab, V domains shown)
VH: EVQLVQSGAEVKKPGASVKVSCKASGYTFTSYWMHWVRQAPGQGLEWMGRIDPQSGGIKYAQKFQGRATLTVDTSTSTAYMELSRLRSDDTAVYYCARWDYGGYFDVWGQGTLVTVSS
VL: DIQMTQSPSSLSASVGDRVTITCRASQDITNYLNWYQQKPGKAVKLLIYYTSRLHSGVPSRFSGSGSGTDYTLTISSLQPEDFATYFCQQGDTDPWTFGQGTKLEIKR
notes: as for B3
B8: VH H35K (30BIT) (Fab, V domains shown)
VH: EVQLVQSGAEVKKPGASVKVSCKASGYTFTSYWMKWVRQAPGQGLEWMGRIDPQSGGIKYAQKFQGRATLTVDTSTSTAYMELSRLRSDDTAVYYCARWDYGGYFDVWGQGTLVTVSS
VL: DIQMTQSPSSLSASVGDRVTITCRASQDITNYLNWYQQKPGKAVKLLIYYTSRLHSGVPSRFSGSGSGTDYTLTISSLQPEDFATYFCQQGDTLPWTFGQGTKLEIKR
notes: as for B1
B9: VL R53D (35BIT) (Fab, V domains shown)
VH: EVQLVQSGAEVKKPGASVKVSCKASGYTFTSYWMHWVRQAPGQGLEWMGRIDPQSGGIKYAQKFQGRATLTVDTSTSTAYMELSRLRSDDTAVYYCARWDYGGYFDVWGQGTLVTVSS
VL: DIQMTQSPSSLSASVGDRVTITCRASQDITNYLNWYQQKPGKAVKLLIYYTSDLHSGVPSRFSGSGSGTDYTLTISSLQPEDFATYFCQQGDTLPWTFGQGTKLEIKR
notes: as for B3
B10: VH H35R (62BIT) (Fab, V domains shown)
VH: EVQLVQSGAEVKKPGASVKVSCKASGYTFTSYWMRWVRQAPGQGLEWMGRIDPQSGGIKYAQKFQGRATLTVDTSTSTAYMELSRLRSDDTAVYYCARWDYGGYFDVWGQGTLVTVSS
VL: DIQMTQSPSSLSASVGDRVTITCRASQDITNYLNWYQQKPGKAVKLLIYYTSRLHSGVPSRFSGSGSGTDYTLTISSLQPEDFATYFCQQGDTLPWTFGQGTKLEIKR
notes: as for B1
B11: VL T30D (37BIT) (Fab, V domains shown)
VH: EVQLVQSGAEVKKPGASVKVSCKASGYTFTSYWMHWVRQAPGQGLEWMGRIDPQSGGIKYAQKFQGRATLTVDTSTSTAYMELSRLRSDDTAVYYCARWDYGGYFDVWGQGTLVTVSS
VL: DIQMTQSPSSLSASVGDRVTITCRASQDIDNYLNWYQQKPGKAVKLLIYYTSRLHSGVPSRFSGSGSGTDYTLTISSLQPEDFATYFCQQGDTLPWTFGQGTKLEIKR
notes: as for B3
B12: VL L94Q (33BIT) (Fab, V domains shown)
VH: EVQLVQSGAEVKKPGASVKVSCKASGYTFTSYWMHWVRQAPGQGLEWMGRIDPQSGGIKYAQKFQGRATLTVDTSTSTAYMELSRLRSDDTAVYYCARWDYGGYFDVWGQGTLVTVSS
VL: DIQMTQSPSSLSASVGDRVTITCRASQDITNYLNWYQQKPGKAVKLLIYYTSRLHSGVPSRFSGSGSGTDYTLTISSLQPEDFATYFCQQGDTQPWTFGQGTKLEIKR
notes: as for B3
B13: VH K59Q (28BIT) (Fab, V domains shown)
VH: EVQLVQSGAEVKKPGASVKVSCKASGYTFTSYWMHWVRQAPGQGLEWMGRIDPQSGGIQYAQKFQGRATLTVDTSTSTAYMELSRLRSDDTAVYYCARWDYGGYFDVWGQGTLVTVSS
VL: DIQMTQSPSSLSASVGDRVTITCRASQDITNYLNWYQQKPGKAVKLLIYYTSRLHSGVPSRFSGSGSGTDYTLTISSLQPEDFATYFCQQGDTLPWTFGQGTKLEIKR
notes: as for B1
B14: VH S31K (24BIT) (Fab, V domains shown)
VH: EVQLVQSGAEVKKPGASVKVSCKASGYTFTKYWMHWVRQAPGQGLEWMGRIDPQSGGIKYAQKFQGRATLTVDTSTSTAYMELSRLRSDDTAVYYCARWDYGGYFDVWGQGTLVTVSS
VL: DIQMTQSPSSLSASVGDRVTITCRASQDITNYLNWYQQKPGKAVKLLIYYTSRLHSGVPSRFSGSGSGTDYTLTISSLQPEDFATYFCQQGDTLPWTFGQGTKLEIKR
notes: as for B1
B15: VH K59W (61BIT) (Fab, V domains shown)
VH: EVQLVQSGAEVKKPGASVKVSCKASGYTFTSYWMHWVRQAPGQGLEWMGRIDPQSGGIWYAQKFQGRATLTVDTSTSTAYMELSRLRSDDTAVYYCARWDYGGYFDVWGQGTLVTVSS
VL: DIQMTQSPSSLSASVGDRVTITCRASQDITNYLNWYQQKPGKAVKLLIYYTSRLHSGVPSRFSGSGSGTDYTLTISSLQPEDFATYFCQQGDTLPWTFGQGTKLEIKR
notes: as for B1
B16: parental 20E6 humanized antibody (antibody, IgG1, V domains shown)
VH: EVQLVQSGAEVKKPGASVKVSCKASGYTFTSYWMHWVRQAPGQGLEWMGRIDPQSGGIKYAQKFQGRATLTVDTSTSTAYMELSRLRSDDTAVYYCARWDYGGYFDVWGQGTLVTVSS
VL: DIQMTQSPSSLSASVGDRVTITCRASQDITNYLNWYQQKPGKAVKLLIYYTSRLHSGVPSRFSGSGSGTDYTLTISSLQPEDFATYFCQQGDTLPWTFGQGTKLEIK
B17: 08BLM (antibody, human IgG1, kappa, L234A L235A, V domains shown)
VH: EVQLVQSGAEVKKPGASVKVSCKASGYTFTSYDMHWVRQAPGQGLEWMGRIDPQSGGTKYAQKFQGRATLTVDTSTSTAYMELSRLRSDDTAVYYCARWDYGGQFDVWGQGTLVTVSS
VL: DIQMTQSPSSLSASVGDRVTITCRASQDIYNYLNWYQQKPGKAVKLLIYYTSGLETGVPSRFSGSGSGTDYTLTISSLQPEDFATYFCQQGDTLPWTFGQGTKLEIKR

One assay deals with T1, human LAP-TGFB1 Fc fusion (human).
T1 construct: also called human LAP-TGFβ1-Fc; human LAP-TGFβ-Fc isoform 1
T1 sequence (chain, as listed by the source limits assumed): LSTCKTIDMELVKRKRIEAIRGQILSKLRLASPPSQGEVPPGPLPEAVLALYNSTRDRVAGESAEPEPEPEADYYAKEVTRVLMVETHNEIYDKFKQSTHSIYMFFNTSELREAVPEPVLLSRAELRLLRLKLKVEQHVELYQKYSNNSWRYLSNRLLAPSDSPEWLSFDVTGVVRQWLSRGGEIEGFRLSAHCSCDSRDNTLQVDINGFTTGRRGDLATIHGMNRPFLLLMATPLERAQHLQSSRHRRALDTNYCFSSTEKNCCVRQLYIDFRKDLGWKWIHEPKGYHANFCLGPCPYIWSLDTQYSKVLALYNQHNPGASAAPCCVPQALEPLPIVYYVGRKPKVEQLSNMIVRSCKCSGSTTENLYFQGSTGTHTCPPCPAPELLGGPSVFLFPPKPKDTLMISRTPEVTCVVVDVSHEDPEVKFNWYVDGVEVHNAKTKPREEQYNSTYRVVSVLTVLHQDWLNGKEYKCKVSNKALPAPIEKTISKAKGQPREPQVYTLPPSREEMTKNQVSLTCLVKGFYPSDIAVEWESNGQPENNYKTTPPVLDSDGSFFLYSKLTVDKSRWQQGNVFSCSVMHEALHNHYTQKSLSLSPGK
Kind of assay: BLI off-rate screen. As to the method: The Fab mutants including a positive control, 20E6 Fab, and a negative control Fab (Molecular Innovations, catalog HU-FAB-4510) were diluted to 200 nM in assay buffer and loaded to FAB2G sensors for 180 seconds followed by a one-hour incubation at room temperature in assay buffer to equilibrate the tips. The Fab loaded sensors were assessed for binding with 100 nM human LAP-TGFβ for 180 seconds followed by a 180 second dissociation phase in assay buffer on a ForteBio HTX (software version 9.0.0.66). Non-specific binding to the negative control Fab was subtracted and the binding sensorgrams were aligned to the start of the association phase on the X and Y axis. The Fab binding was fit with the 1:1 binding model, dissociation phase only, with local fitting using ForteBio Data Analysis 9.0 software.
One may read the koff as the rate constant with which the complex falls apart. Turning to B1, the Binding response came out at 0.069 nm, the Fold change amounted to 1 fold and the koff was 0.0437 s⁻¹.

Turning to B2, the Binding response came to 0.757 nm, the Fold change was found to be 1.7 fold and the koff was 0.0246 s⁻¹.

B3 yielded a Binding response of 0.664 nm, a Fold change of 1.5 fold and a koff of 0.0286 s⁻¹.

Molecule B4 registered a Binding response of 0.439 nm, a Fold change of 1 fold and a koff of 0.0405 s⁻¹.

For B5, the Binding response came out at 0.087 nm, the Fold change was 0.5 fold and the koff amounted to 0.0845 s⁻¹.

As for B6, the Binding response came out at 0.489 nm, the Fold change turned out to be 0.8 fold and the koff came out at 0.0519 s⁻¹.

The molecule B7 returned a Binding response of 0.195 nm, a Fold change of 0.7 fold and a koff of 0.0618 s⁻¹.

Regarding B8, the Binding response was found to be 0.115 nm, the Fold change was 0.8 fold and the koff amounted to 0.0548 s⁻¹.

Turning to B9, the Binding response stood at 0.398 nm, the Fold change was determined as 1.2 fold and the koff amounted to 0.0341 s⁻¹.

Regarding B10, the Binding response amounted to 0.021 nm and the binding result is on record as “no binding (tested: 100 nM antigen)”.

For B11, the Binding response stood at 0.182 nm, the Fold change was 1.1 fold and the koff came out at 0.0402 s⁻¹.

Take B12: the Binding response turned out to be 0.341 nm, the Fold change was found to be 0.7 fold and the koff was determined as 0.0583 s⁻¹.

In turn, B13 had a Binding response of 0.165 nm, a Fold change of 0.7 fold and a koff of 0.0596 s⁻¹.

Turning to B14, the Binding response turned out to be 0.625 nm, the Fold change stood at 1.1 fold and the koff stood at 0.037 s⁻¹.

For B15, the Binding response worked out at 0.035 nm and the binding result was “no binding (tested: 100 nM antigen)”.

The target in another assay is human LAP-TGFβ1 expressed on P3U1 cells (human, UniProt P01137 30-390). In words: cell-based or functional assay.
human LAP-TGFβ1 expressed on P3U1 cells, sequence (P01137 30-390): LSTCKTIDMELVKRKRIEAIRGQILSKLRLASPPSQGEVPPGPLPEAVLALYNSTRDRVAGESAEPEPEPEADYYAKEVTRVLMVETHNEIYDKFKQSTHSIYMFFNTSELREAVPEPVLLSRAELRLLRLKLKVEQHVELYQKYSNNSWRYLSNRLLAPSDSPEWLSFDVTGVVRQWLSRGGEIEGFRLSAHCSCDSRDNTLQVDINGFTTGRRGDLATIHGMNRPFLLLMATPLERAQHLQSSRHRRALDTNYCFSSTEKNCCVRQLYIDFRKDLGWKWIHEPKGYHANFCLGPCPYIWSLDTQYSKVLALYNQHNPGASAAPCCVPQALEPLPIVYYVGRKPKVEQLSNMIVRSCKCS
On to B16, for which the “Average EC50” value came out at 5.64 µg/mL, the “ELISA assay 2 EC50” value came out at 8.9 µg/mL and the “ELISA assay #1 EC50” value came out at 2.38 µg/mL.

For the molecule B17, the “Average EC50” value came to 0.076 µg/mL, the “ELISA assay 2 EC50” value amounted to 0.098 µg/mL and the “ELISA assay #1 EC50” value worked out at 0.0539 µg/mL.
